Variants at the floor of the assay were thinned out.
Tests used:
biotinyl-Phe-oxazolone = test: self-aminoacylation, catalytic enhancement (BFO) (fold over background); higher = more active; k-Seq, kA / k0A0; sequences stand for … in GGGAAUGGAUCCACAUCUACGAAUUC…UUCACUGCAGACUUGACGAAGCUG
Outline: (§1)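 Mutagenized RNA pools with a 21-nt variable region (0.43 μM) reacted with each biotinyl-aminoacyl-oxazolone at 2–1250 μM. Reactions ran in 50 μL HEPES/NaCl/KCl/MgCl2/CaCl2 buffer with 5% acetonitrile, pH 6.9–7.0, for 90 minutes at room temperature. Streptavidin-captured RNA was quantified by triplicate qPCR and Illumina sequencing, and per-sequence fraction reacted was fit to a pseudo-first-order model with 1000 bootstraps. Catalytic enhancement is median kA divided by the uncatalyzed rate, the low-activity peak of a bimodal Gaussian fit.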

biotinyl-Val-oxazolone = test: self-aminoacylation, catalytic enhancement (BVO) (fold over background); higher = more active; k-Seq, kA / k0A0; sequences stand for … in GGGAAUGGAUCCACAUCUACGAAUUC…UUCACUGCAGACUUGACGAAGCUG
Outline: as §1

biotinyl-Trp-oxazolone = test: self-aminoacylation, catalytic enhancement (BWO) (fold over background); higher = more active; k-Seq, kA / k0A0; sequences stand for … in GGGAAUGGAUCCACAUCUACGAAUUC…UUCACUGCAGACUUGACGAAGCUG
Outline: as §1

biotinyl-Leu-oxazolone = test: self-aminoacylation, catalytic enhancement (BLO) (fold over background); higher = more active; k-Seq, kA / k0A0; sequences stand for … in GGGAAUGGAUCCACAUCUACGAAUUC…UUCACUGCAGACUUGACGAAGCUG
Outline: as §1

biotinyl-Met-oxazolone = test: self-aminoacylation, catalytic enhancement (BMO) (fold over background); higher = more active; k-Seq, kA / k0A0; sequences stand for … in GGGAAUGGAUCCACAUCUACGAAUUC…UUCACUGCAGACUUGACGAAGCUG
Outline: as §1

biotinyl-Ile-oxazolone = test: self-aminoacylation, catalytic enhancement (BIO) (fold over background); higher = more active; k-Seq, kA / k0A0; sequences stand for … in GGGAAUGGAUCCACAUCUACGAAUUC…UUCACUGCAGACUUGACGAAGCUG
Outline: as §1

AUUCACCUAGGUCCUCGGGGG [Fam2.2 aminoacylation ribozyme variant]
self-aminoacylation (biotinyl-Phe-oxazolone): 9.54
self-aminoacylation (biotinyl-Val-oxazolone): 2.85
self-aminoacylation (biotinyl-Trp-oxazolone): 2.42
self-aminoacylation (biotinyl-Leu-oxazolone): 2.98
self-aminoacylation (biotinyl-Met-oxazolone): 2.98
self-aminoacylation (biotinyl-Ile-oxazolone): 2.8

AUUCACCUAGGUCCUCGGGUG [Fam2.2 aminoacylation ribozyme variant]
self-aminoacylation (biotinyl-Phe-oxazolone): 30.2
self-aminoacylation (biotinyl-Val-oxazolone): 3.13
self-aminoacylation (biotinyl-Trp-oxazolone): 4.22
self-aminoacylation (biotinyl-Leu-oxazolone): 5.91
self-aminoacylation (biotinyl-Met-oxazolone): 4.59
self-aminoacylation (biotinyl-Ile-oxazolone): 3.08

AUUCACCUAGGUCCUCGGGUU [Fam2.2 aminoacylation ribozyme variant]
self-aminoacylation (biotinyl-Phe-oxazolone): 8.53
self-aminoacylation (biotinyl-Val-oxazolone): 2.06
self-aminoacylation (biotinyl-Trp-oxazolone): 2.48
self-aminoacylation (biotinyl-Leu-oxazolone): 2.45
self-aminoacylation (biotinyl-Met-oxazolone): 2.22
self-aminoacylation (biotinyl-Ile-oxazolone): 1.8

AUUCACCUAGGUCCUUGGGUG [Fam2.2 aminoacylation ribozyme variant]
self-aminoacylation (biotinyl-Phe-oxazolone): 31.7
self-aminoacylation (biotinyl-Val-oxazolone): 2.51
self-aminoacylation (biotinyl-Trp-oxazolone): 3.42
self-aminoacylation (biotinyl-Leu-oxazolone): 5.09
self-aminoacylation (biotinyl-Met-oxazolone): 4.11
self-aminoacylation (biotinyl-Ile-oxazolone): 2.7

AUUCACCUAGGUCGUCGGCUG [Fam2.2 aminoacylation ribozyme variant]
self-aminoacylation (biotinyl-Phe-oxazolone): 4.94
self-aminoacylation (biotinyl-Val-oxazolone): 1.97
self-aminoacylation (biotinyl-Trp-oxazolone): 1.63
self-aminoacylation (biotinyl-Leu-oxazolone): 2.55
self-aminoacylation (biotinyl-Met-oxazolone): 2.16
self-aminoacylation (biotinyl-Ile-oxazolone): 1.62

AUUCACCUAGGUCUGCGGGUG [Fam2.2 aminoacylation ribozyme variant]
self-aminoacylation (biotinyl-Phe-oxazolone): 12.8
self-aminoacylation (biotinyl-Val-oxazolone): 2.58
self-aminoacylation (biotinyl-Trp-oxazolone): 3.44
self-aminoacylation (biotinyl-Leu-oxazolone): 4.85
self-aminoacylation (biotinyl-Met-oxazolone): 4.69
self-aminoacylation (biotinyl-Ile-oxazolone): 3.08

AUUCACCUAGGUGACCGGGUG [Fam2.2 aminoacylation ribozyme variant]
self-aminoacylation (biotinyl-Phe-oxazolone): 23
self-aminoacylation (biotinyl-Val-oxazolone): 4.19
self-aminoacylation (biotinyl-Trp-oxazolone): 6.82
self-aminoacylation (biotinyl-Leu-oxazolone): 5.29
self-aminoacylation (biotinyl-Met-oxazolone): 3.84
self-aminoacylation (biotinyl-Ile-oxazolone): 4.8

AUUCACCUAGGUGAUCGGCUG [Fam2.2 aminoacylation ribozyme variant]
self-aminoacylation (biotinyl-Phe-oxazolone): 9.04
self-aminoacylation (biotinyl-Val-oxazolone): 1.66
self-aminoacylation (biotinyl-Trp-oxazolone): 1.67
self-aminoacylation (biotinyl-Leu-oxazolone): 1.98
self-aminoacylation (biotinyl-Met-oxazolone): 1.74
self-aminoacylation (biotinyl-Ile-oxazolone): 1.77

AUUCACCUAGGUGAUCGGGUU [Fam2.2 aminoacylation ribozyme variant]
self-aminoacylation (biotinyl-Phe-oxazolone): 9.06
self-aminoacylation (biotinyl-Val-oxazolone): 1.88
self-aminoacylation (biotinyl-Trp-oxazolone): 1.06
self-aminoacylation (biotinyl-Leu-oxazolone): 2.59
self-aminoacylation (biotinyl-Met-oxazolone): 1.89
self-aminoacylation (biotinyl-Ile-oxazolone): 1.85

AUUCACCUAGGUGAUCGGUUG [Fam2.2 aminoacylation ribozyme variant]
self-aminoacylation (biotinyl-Phe-oxazolone): 3.17
self-aminoacylation (biotinyl-Val-oxazolone): 0.921
self-aminoacylation (biotinyl-Trp-oxazolone): 1.03
self-aminoacylation (biotinyl-Leu-oxazolone): 0.93
self-aminoacylation (biotinyl-Met-oxazolone): 0.928
self-aminoacylation (biotinyl-Ile-oxazolone): 0.875

AUUCACCUAGGUUAGCGGGUG [Fam2.2 aminoacylation ribozyme variant]
self-aminoacylation (biotinyl-Phe-oxazolone): 19.7
self-aminoacylation (biotinyl-Val-oxazolone): 2.22
self-aminoacylation (biotinyl-Trp-oxazolone): 3.43
self-aminoacylation (biotinyl-Leu-oxazolone): 2.9
self-aminoacylation (biotinyl-Met-oxazolone): 2.98
self-aminoacylation (biotinyl-Ile-oxazolone): 2.55

AUUCACCUAGGUUAUCGCGUG [Fam2.2 aminoacylation ribozyme variant]
self-aminoacylation (biotinyl-Phe-oxazolone): 20.7
self-aminoacylation (biotinyl-Val-oxazolone): 2.64
self-aminoacylation (biotinyl-Trp-oxazolone): 3.11
self-aminoacylation (biotinyl-Leu-oxazolone): 3.29
self-aminoacylation (biotinyl-Met-oxazolone): 3.16
self-aminoacylation (biotinyl-Ile-oxazolone): 2.09

AUUCACCUAGGUUAUCGGCUG [Fam2.2 aminoacylation ribozyme variant]
self-aminoacylation (biotinyl-Phe-oxazolone): 4.24
self-aminoacylation (biotinyl-Val-oxazolone): 1.57
self-aminoacylation (biotinyl-Trp-oxazolone): 1.44
self-aminoacylation (biotinyl-Leu-oxazolone): 1.79
self-aminoacylation (biotinyl-Met-oxazolone): 1.73
self-aminoacylation (biotinyl-Ile-oxazolone): 1.45

AUUCACCUAGGUUAUCGGGUA [Fam2.2 aminoacylation ribozyme variant]
self-aminoacylation (biotinyl-Phe-oxazolone): 13.3
self-aminoacylation (biotinyl-Val-oxazolone): 2.49
self-aminoacylation (biotinyl-Trp-oxazolone): 3.37
self-aminoacylation (biotinyl-Leu-oxazolone): 3.54
self-aminoacylation (biotinyl-Met-oxazolone): 2.55
self-aminoacylation (biotinyl-Ile-oxazolone): 2.02

AUUCACCUAGUUCAUCGAGUG [Fam2.2 aminoacylation ribozyme variant]
self-aminoacylation (biotinyl-Phe-oxazolone): 1.17
self-aminoacylation (biotinyl-Val-oxazolone): 1.04
self-aminoacylation (biotinyl-Trp-oxazolone): 1.25
self-aminoacylation (biotinyl-Leu-oxazolone): 1.31
self-aminoacylation (biotinyl-Met-oxazolone): 1.21
self-aminoacylation (biotinyl-Ile-oxazolone): 0.949

AUUCACCUAGUUCAUCGGGCG [Fam2.2 aminoacylation ribozyme variant]
self-aminoacylation (biotinyl-Phe-oxazolone): 5.7
self-aminoacylation (biotinyl-Val-oxazolone): 1.93
self-aminoacylation (biotinyl-Trp-oxazolone): 2.88
self-aminoacylation (biotinyl-Leu-oxazolone): 1.96
self-aminoacylation (biotinyl-Met-oxazolone): 2.19
self-aminoacylation (biotinyl-Ile-oxazolone): 1.95

AUUCACCUAUGUCAUCGGGGG [Fam2.2 aminoacylation ribozyme variant]
self-aminoacylation (biotinyl-Phe-oxazolone): 6.23
self-aminoacylation (biotinyl-Val-oxazolone): 1.38
self-aminoacylation (biotinyl-Trp-oxazolone): 1.58
self-aminoacylation (biotinyl-Leu-oxazolone): 1.93
self-aminoacylation (biotinyl-Met-oxazolone): 2
self-aminoacylation (biotinyl-Ile-oxazolone): 1.5

AUUCACCUAUGUCAUCGGGUA [Fam2.2 aminoacylation ribozyme variant]
self-aminoacylation (biotinyl-Phe-oxazolone): 1.14
self-aminoacylation (biotinyl-Val-oxazolone): 1.79
self-aminoacylation (biotinyl-Trp-oxazolone): 1.89
self-aminoacylation (biotinyl-Leu-oxazolone): 2.41
self-aminoacylation (biotinyl-Met-oxazolone): 1.96
self-aminoacylation (biotinyl-Ile-oxazolone): 1.55

AUUCACCUCGGUCAUCGGGCG [Fam2.2 aminoacylation ribozyme variant]
self-aminoacylation (biotinyl-Phe-oxazolone): 19.5
self-aminoacylation (biotinyl-Val-oxazolone): 3.43
self-aminoacylation (biotinyl-Trp-oxazolone): 2.32
self-aminoacylation (biotinyl-Leu-oxazolone): 3.62
self-aminoacylation (biotinyl-Met-oxazolone): 3.37
self-aminoacylation (biotinyl-Ile-oxazolone): 2.49

AUUCACCUCGGUCAUCGGGUG [Fam2.2 aminoacylation ribozyme variant]
self-aminoacylation (biotinyl-Phe-oxazolone): 53.6
self-aminoacylation (biotinyl-Val-oxazolone): 5.15
self-aminoacylation (biotinyl-Trp-oxazolone): 7.49
self-aminoacylation (biotinyl-Leu-oxazolone): 9.64
self-aminoacylation (biotinyl-Met-oxazolone): 7.69
self-aminoacylation (biotinyl-Ile-oxazolone): 4.59

AUUCACCUCGGUCAUCUGGUG [Fam2.2 aminoacylation ribozyme variant]
self-aminoacylation (biotinyl-Phe-oxazolone): 29.2
self-aminoacylation (biotinyl-Val-oxazolone): 2.16
self-aminoacylation (biotinyl-Trp-oxazolone): 3.2
self-aminoacylation (biotinyl-Leu-oxazolone): 4.16
self-aminoacylation (biotinyl-Met-oxazolone): 3.29
self-aminoacylation (biotinyl-Ile-oxazolone): 2.17

AUUCACCUCGGUCGUCGGGUG [Fam2.2 aminoacylation ribozyme variant]
self-aminoacylation (biotinyl-Phe-oxazolone): 11.4
self-aminoacylation (biotinyl-Val-oxazolone): 3.12
self-aminoacylation (biotinyl-Trp-oxazolone): 2.53
self-aminoacylation (biotinyl-Leu-oxazolone): 2.85
self-aminoacylation (biotinyl-Met-oxazolone): 2.41
self-aminoacylation (biotinyl-Ile-oxazolone): 2.42

AUUCACCUCGUUCAUCGGGUG [Fam2.2 aminoacylation ribozyme variant]
self-aminoacylation (biotinyl-Phe-oxazolone): 26.3
self-aminoacylation (biotinyl-Val-oxazolone): 3.3
self-aminoacylation (biotinyl-Trp-oxazolone): 5
self-aminoacylation (biotinyl-Leu-oxazolone): 5.48
self-aminoacylation (biotinyl-Met-oxazolone): 4.1
self-aminoacylation (biotinyl-Ile-oxazolone): 2.93

AUUCACCUGGGACAUCGGGUG [Fam2.2 aminoacylation ribozyme variant]
self-aminoacylation (biotinyl-Phe-oxazolone): 55.4
self-aminoacylation (biotinyl-Val-oxazolone): 4.3
self-aminoacylation (biotinyl-Trp-oxazolone): 5.11
self-aminoacylation (biotinyl-Leu-oxazolone): 6.71
self-aminoacylation (biotinyl-Met-oxazolone): 7.06
self-aminoacylation (biotinyl-Ile-oxazolone): 4.15

AUUCACCUGGGCCAUCGGGUG [Fam2.2 aminoacylation ribozyme variant]
self-aminoacylation (biotinyl-Phe-oxazolone): 35.7
self-aminoacylation (biotinyl-Val-oxazolone): 5.03
self-aminoacylation (biotinyl-Trp-oxazolone): 4.74
self-aminoacylation (biotinyl-Leu-oxazolone): 6.53
self-aminoacylation (biotinyl-Met-oxazolone): 6.2
self-aminoacylation (biotinyl-Ile-oxazolone): 4.03

AUUCACCUGGGUCAACGGGUG [Fam2.2 aminoacylation ribozyme variant]
self-aminoacylation (biotinyl-Phe-oxazolone): 22.8
self-aminoacylation (biotinyl-Val-oxazolone): 2.56
self-aminoacylation (biotinyl-Trp-oxazolone): 3.21
self-aminoacylation (biotinyl-Leu-oxazolone): 4.25
self-aminoacylation (biotinyl-Met-oxazolone): 3.9
self-aminoacylation (biotinyl-Ile-oxazolone): 2.41

Source: the supplement of paper PMC9233669
